Source: patent US5354676A, “Recombinant modified thermostable NAD-dependent dehydrogenases and process for their production” (The University of Bristol, priority 1989, dated 1994)

Key:
Experiment in all cases: purified protein, by the assay type
[1] = substrate: NC(=O)C1=CN([C@@H]2O[C@H](COP(=O)(O)OP(=O)(O)OC[C@H]3O[C@@H](n4cnc5c(N)ncnc54)[C@H](O)[C@@H]3O)[C@@H](O)[C@H]2O)C=CC1; type: biochemical, Bacillus stearothermophilus; conditions: other: WT; in the presence of 0.5 mM pyruvate; pH 6.0
Procedure: (§1) Steady-state reaction rates were determined by following the change in A340 due to the consumption of NADH. […] The buffer for all experiments was 100rmM triethanolamine-HC1/NaOH,pH 6.

[2] = substrate: CC(=O)C(=O)O; type: biochemical, Bacillus stearothermophilus; conditions: other: WT, No FBP, pH 6
Procedure: as §1

[3] = substrate: NC(=O)C1=CN([C@@H]2O[C@H](COP(=O)(O)OP(=O)(O)OC[C@H]3O[C@@H](n4cnc5c(N)ncnc54)[C@H](O)[C@@H]3O)[C@@H](O)[C@H]2O)C=CC1; type: biochemical; conditions: in the presence of 0.5 mM pyruvate, pH 6.0
Procedure: as §1

[4] = substrate: NC(=O)C1=CN([C@@H]2O[C@H](COP(=O)(O)OP(=O)(O)OC[C@H]3O[C@@H](n4cnc5c(N)ncnc54)[C@H](O)[C@@H]3O)[C@@H](O)[C@H]2O)C=CC1; conditions: other: GG; in the presence of 0.5 mM pyruvate; pH 6.0
Procedure: as §1

[5] = substrate: CC(=O)C(=O)O; type: biochemical; conditions: other: MVS, No FBP, pH 6
Procedure: as §1

B1: Bacillus stearothermophilus NAD-dependent L-lactate dehydrogenase, wild type (WT) (Geobacillus stearothermophilus) (protein)
chain: MKNNGGARVVVIGAGFVGASYVFALMNQGIADEIVLIDANESKAIGDAMDFNHGKVFAPKPVDIWHGDYDDCRDADLVVICAGANQKPGETRLDLVDKNIAIFRSIVESVMASGFQGLFLVATNPVDILTYATWKFSGLPHERVIGSGTILDTARFRFLLGEYFSVAPQNVHAYIIGEHGDTELPVWSQAYIGVMPIRKLVESKGEEAQKDLERIFVNVRDAAYQIIEKKGATYYGIAMGLARVTRAILHNENAILTVSAYLDGLYGERDVYIGVPAVINRNGIREVIEIELNDDEKNRFHHSAATLKSVLARAFTR
notes: made in house; host or cells: E. coli
Km [1]: 18 µM | Km [2]: 3000 µM | kcat/Km [2]: 83000 M⁻¹ s⁻¹

B2: Bacillus stearothermophilus L-lactate dehydrogenase variant MVS/GG (102-5 QKP→MVS and 235-6 AA→GG) (Geobacillus stearothermophilus; A222G/A223G/K87V/P88S/Q86M) (protein)
chain: MKNNGGARVVVIGAGFVGASYVFALMNQGIADEIVLIDANESKAIGDAMDFNHGKVFAPKPVDIWHGDYDDCRDADLVVICAGANMVSGETRLDLVDKNIAIFRSIVESVMASGFQGLFLVATNPVDILTYATWKFSGLPHERVIGSGTILDTARFRFLLGEYFSVAPQNVHAYIIGEHGDTELPVWSQAYIGVMPIRKLVESKGEEAQKDLERIFVNVRDGGYQIIEKKGATYYGIAMGLARVTRAILHNENAILTVSAYLDGLYGERDVYIGVPAVINRNGIREVIEIELNDDEKNRFHHSAATLKSVLARAFTR
notes: made in house; host or cells: E. coli TG2, vector pKK223-3
Km ([3]; other: MVS/GG): 14.5 µM

B3: Bacillus stearothermophilus L-lactate dehydrogenase variant GG (235-6 AA→GG) (Geobacillus stearothermophilus; A222G/A223G) (protein)
chain: MKNNGGARVVVIGAGFVGASYVFALMNQGIADEIVLIDANESKAIGDAMDFNHGKVFAPKPVDIWHGDYDDCRDADLVVICAGANQKPGETRLDLVDKNIAIFRSIVESVMASGFQGLFLVATNPVDILTYATWKFSGLPHERVIGSGTILDTARFRFLLGEYFSVAPQNVHAYIIGEHGDTELPVWSQAYIGVMPIRKLVESKGEEAQKDLERIFVNVRDGGYQIIEKKGATYYGIAMGLARVTRAILHNENAILTVSAYLDGLYGERDVYIGVPAVINRNGIREVIEIELNDDEKNRFHHSAATLKSVLARAFTR
Km [4]: 18 µM

B4: Bacillus stearothermophilus L-lactate dehydrogenase variant MVS (102-5 QKP→MVS) (Geobacillus stearothermophilus; K87V/P88S/Q86M) (protein)
chain: MKNNGGARVVVIGAGFVGASYVFALMNQGIADEIVLIDANESKAIGDAMDFNHGKVFAPKPVDIWHGDYDDCRDADLVVICAGANMVSGETRLDLVDKNIAIFRSIVESVMASGFQGLFLVATNPVDILTYATWKFSGLPHERVIGSGTILDTARFRFLLGEYFSVAPQNVHAYIIGEHGDTELPVWSQAYIGVMPIRKLVESKGEEAQKDLERIFVNVRDAAYQIIEKKGATYYGIAMGLARVTRAILHNENAILTVSAYLDGLYGERDVYIGVPAVINRNGIREVIEIELNDDEKNRFHHSAATLKSVLARAFTR
notes: as for B2
Km ([3]; other: MVS): 14.5 µM | Km [5]: 15000 µM | kcat [5]: 61 s⁻¹ | kcat/Km [5]: 4100 M⁻¹ s⁻¹
